We go through one protein from paper PMC3148273.

Substrate in this data set: CCCCCCCCCCCCC/C=C/[C@@H](O)[C@@H](N)CO
As to the kind of experiment: purified SK2 Michaelis-Menten kinetics with [γ-32P]ATP. The data set is classed as biochemical, Homo sapiens. The note with it: Mg2+.

B1: sphingosine kinase 2 (SK2) (Homo sapiens) (protein)
chain: MNGHLEAEEQQDQRPDQELTGSWGHGPRSTLVRAKAMAPPPPPLAASTPLLHGEFGSYPARGPRFALTLTSQALHIQRLRPKPEARPRGGLVPLAEVSGCCTLRSRSPSDSAAYFCIYTYPRGRRGARRRATRTFRADGAATYEENRAEAQRWATALTCLLRGLPLPGDGEITPDLLPRPPRLLLLVNPFGGRGLAWQWCKNHVLPMISEAGLSFNLIQTERQNHARELVQGLSLSEWDGIVTVSGDGLLHEVLNGLLDRPDWEEAVKMPVGILPCGSGNALAGAVNQHGGFEPALGLDLLLNCSLLLCRGGGHPLDLLSVTLASGSRCFSFLSVAWGFVSDVDIQSERFRALGSARFTLGTVLGLATLHTYRGRLSYLPATVEPASPTPAHSLPRAKSELTLTPDPAPPMAHSPLHRSVSDLPLPLPQPALASPGSPEPLPILSLNGGGPELAGDWGGAGDAPLSPDPLLSSPPGSPKAALHSPVSEGAPVIPPSSGLPLPTPDARVGASTCGPPDHLLPPLGTPLPPDWVTLEGDFVLMLAISPSHLGADLVAAPHARFDDGLVHLCWVRSGISRAALLRLFLAMERGSHFSLGCPQLGYAAARAFRLEPLTPRGVLTVDGEQVEYGPLQAQMHPGIGTLLTGPPGCPGREP
Take B1: the Km (commonly the concentration of substrate that gives half-maximal velocity) turned out to be 10.5 µM.
